Tests used:
[1] = biological target: T1, 1:1 binary complex of FGFR1c ligand-binding domain and βKlotho ectodomain (human; murine, UniProt P11362 142-365; Q99N32 53-995); test: SPR competition; FGF21 immobilized, FGFR1c-βKlotho complex mixed with an equimolar amount of the chimera (FIG. 15F)
T1 construct: also called FGFR1c-βKlotho complex; FGFR1c-βKlotho; not shown: C-terminal FLAG tag
T1 sequence 1: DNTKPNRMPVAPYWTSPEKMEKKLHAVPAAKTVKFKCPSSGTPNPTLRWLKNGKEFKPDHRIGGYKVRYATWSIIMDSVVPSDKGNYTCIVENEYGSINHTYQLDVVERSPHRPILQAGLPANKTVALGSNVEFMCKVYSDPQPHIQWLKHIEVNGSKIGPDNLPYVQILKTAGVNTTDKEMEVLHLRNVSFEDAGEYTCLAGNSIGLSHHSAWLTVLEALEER
T1 sequence 2: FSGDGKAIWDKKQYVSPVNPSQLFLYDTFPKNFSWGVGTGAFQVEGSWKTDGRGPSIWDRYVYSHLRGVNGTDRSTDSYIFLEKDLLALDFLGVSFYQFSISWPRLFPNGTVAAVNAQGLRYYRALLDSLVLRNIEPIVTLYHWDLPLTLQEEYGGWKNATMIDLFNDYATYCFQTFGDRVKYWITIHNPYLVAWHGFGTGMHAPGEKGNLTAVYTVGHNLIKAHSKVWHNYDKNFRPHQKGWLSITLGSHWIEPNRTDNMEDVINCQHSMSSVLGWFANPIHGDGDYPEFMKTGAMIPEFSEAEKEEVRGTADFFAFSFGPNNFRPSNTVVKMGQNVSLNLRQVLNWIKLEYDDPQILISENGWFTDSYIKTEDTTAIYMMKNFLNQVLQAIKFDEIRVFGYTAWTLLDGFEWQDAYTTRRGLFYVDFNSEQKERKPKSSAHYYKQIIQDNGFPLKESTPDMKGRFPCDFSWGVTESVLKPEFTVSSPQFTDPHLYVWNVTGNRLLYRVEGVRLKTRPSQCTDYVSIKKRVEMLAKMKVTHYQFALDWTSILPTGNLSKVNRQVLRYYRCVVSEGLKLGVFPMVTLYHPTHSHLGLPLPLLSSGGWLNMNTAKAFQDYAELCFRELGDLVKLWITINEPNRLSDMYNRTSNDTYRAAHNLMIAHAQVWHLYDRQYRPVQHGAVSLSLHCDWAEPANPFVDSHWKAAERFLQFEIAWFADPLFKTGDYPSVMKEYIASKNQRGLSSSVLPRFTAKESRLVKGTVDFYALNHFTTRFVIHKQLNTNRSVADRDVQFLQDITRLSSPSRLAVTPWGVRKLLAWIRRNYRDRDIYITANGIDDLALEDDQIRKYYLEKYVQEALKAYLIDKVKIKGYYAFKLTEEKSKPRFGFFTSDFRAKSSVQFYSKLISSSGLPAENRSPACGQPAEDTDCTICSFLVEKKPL
Procedure: To examine whether mutants of FGF21 or chimeras composed of a N-terminal portion of FGF21 and a C-terminal portion of FGF19 can compete with wild-type ligand for binding to the FGFR1c-βKlotho complex, FGF21 was immobilized on a chip (˜30 fmol/mm² of flow channel). Increasing concentrations of FGF21 mutant or chimera (0-60 nM) were mixed with a fixed concentration of 1:1 complex of FGFR1c ligand-binding domain and βKlotho ectodomain (10 nM), and the mixtures were passed over the chip. As a control, competition of FGF21 in solution with immobilized FGF21 for binding to the FGFR1c-βKlotho complex was studied. The results are shown in FIGS. 14A to 14D and 15A to 15F.
A competition binding assay was selected over a direct binding assay because its binding data are not confounded by the effects that the coupling of one binding partner to the chip might have. Specifically, it was examined whether a mutant or chimera can compete with native FGF21 for binding to the FGFR1c-βKlotho complex. […] FGF21 was immobilized on a biosensor chip, and mixtures of a fixed concentration of FGFR1c-βKlotho complex with increasing concentrations of either FGF21 mutant or FGF21/FGF19 chimera were passed over the chip. As a control, competition of FGF21 in solution with immobilized FGF21 for binding to the FGFR1c-βKlotho complex was studied.

[2] = biological target: T2, ectodomain of murine βKlotho (F53 to L995 of SEQ ID NO: 218) with a C-terminal FLAG tag (murine, UniProt Q99N32 53-995); test: SPR competition; FGF21 immobilized, fixed βKlotho ectodomain mixed with increasing chimera (FIGS. 7B, 7C)
T2 construct: Expressed in HEK293 cells and purified from culture media; also called βKlotho ectodomain; not shown: C-terminal FLAG tag
T2 sequence: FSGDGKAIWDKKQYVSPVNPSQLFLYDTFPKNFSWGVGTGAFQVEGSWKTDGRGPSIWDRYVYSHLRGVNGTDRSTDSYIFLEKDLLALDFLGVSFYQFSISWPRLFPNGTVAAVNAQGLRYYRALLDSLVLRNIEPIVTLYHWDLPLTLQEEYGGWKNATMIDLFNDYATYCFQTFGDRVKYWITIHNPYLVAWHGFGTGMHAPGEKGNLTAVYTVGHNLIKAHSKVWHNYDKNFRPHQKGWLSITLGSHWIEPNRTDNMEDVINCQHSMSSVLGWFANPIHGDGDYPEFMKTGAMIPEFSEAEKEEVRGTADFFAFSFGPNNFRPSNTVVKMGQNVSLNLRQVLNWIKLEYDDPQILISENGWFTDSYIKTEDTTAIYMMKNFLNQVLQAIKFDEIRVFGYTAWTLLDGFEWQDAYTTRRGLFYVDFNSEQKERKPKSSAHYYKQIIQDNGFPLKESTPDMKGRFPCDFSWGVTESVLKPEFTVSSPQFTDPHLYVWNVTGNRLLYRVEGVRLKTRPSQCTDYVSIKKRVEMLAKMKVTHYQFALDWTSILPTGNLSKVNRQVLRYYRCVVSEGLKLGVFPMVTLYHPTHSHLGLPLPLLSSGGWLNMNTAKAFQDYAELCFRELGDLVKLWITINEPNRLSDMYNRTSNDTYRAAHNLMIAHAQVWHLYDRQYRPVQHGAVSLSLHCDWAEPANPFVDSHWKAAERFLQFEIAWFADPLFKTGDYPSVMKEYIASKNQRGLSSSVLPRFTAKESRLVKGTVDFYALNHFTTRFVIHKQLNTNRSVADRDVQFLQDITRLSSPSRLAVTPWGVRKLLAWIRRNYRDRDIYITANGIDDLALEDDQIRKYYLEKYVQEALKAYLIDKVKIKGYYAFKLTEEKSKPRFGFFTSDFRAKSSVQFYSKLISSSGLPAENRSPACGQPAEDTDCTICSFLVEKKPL
Procedure: Increasing concentrations of FGF21 were mixed with a fixed concentration of βKlotho ectodomain, and the mixtures were passed over a FGF21 chip. […] Increasing concentrations of FGF21²⁹⁻¹⁹⁰/FGF19¹⁹⁷⁻²¹⁶ chimera were mixed with a fixed concentration of βKlotho ectodomain, and the mixtures were passed over a FGF21 chip. […] The figure was created from the data shown in FIGS. 7A-B, which are representative of two independent experiments.
SPR experiments were performed on a Biacore 2000 instrument (Biacore AB), and all the protein-protein and protein-peptide interactions were studied at 25° C. in HBS-EP buffer (10 mM HEPES-NaOH, pH 7.4, 150 mM NaCl, 3 mM EDTA, 0.005% (v/v) polysorbate 20). Proteins were immobilized by amine coupling on flow channels of research grade CM5 chips (Biacore AB). Proteins were injected over a CM5 chip at a flow rate of 50 μl min⁻¹, and at the end of each protein injection (180 s), HBS-EP buffer (50 μl min⁻¹) was flowed over the chip to monitor dissociation for 180 s. In experiments where βKlotho binding to FGFR was analyzed, the chip surface was then regenerated by injecting 50 μl of 2.0 M NaCl in 10 mM sodium/potassium phosphate, pH 6.5. In experiments where α/βKlotho binding to FGF19/21/23 or binding of the FGFR1c-βKlotho complex to FGF21 was studied, 2.0 M NaCl in 10 mM sodium acetate, pH 4.5 was used for chip regeneration. […]

[3] = biological target: T1, 1:1 binary complex of FGFR1c …; test: SPR competition; FGF21 immobilized, FGFR1c-βKlotho complex mixed with the chimera (FIGS. 15E, 15F)
Text: In the experiments shown in FIGS. 15A-15C, increasing concentrations of either an FGF21/FGF19 chimera or wild-type FGF21 were mixed with a fixed concentration of FGFR1c-βKlotho complex, and the mixtures were passed over a FGF21 chip. […] The data shown in FIGS. 15A-15C are representative of two to three independent experiments. Included in FIGS. 15E-15F are SPR sensorgrams obtained from injecting mixtures of the FGF21²⁹⁻¹⁹⁰/FGF19¹⁹⁷⁻²¹⁶ chimera with the FGFR1c-βKlotho complex over a FGF21 chip.
SPR experiments were performed on a Biacore 2000 instrument (Biacore AB), and all the protein-protein and protein-peptide interactions were studied at 25° C. in HBS-EP buffer (10 mM HEPES-NaOH, pH 7.4, 150 mM NaCl, 3 mM EDTA, 0.005% (v/v) polysorbate 20). Proteins were immobilized by amine coupling on flow channels of research grade CM5 chips (Biacore AB). Proteins were injected over a CM5 chip at a flow rate of 50 μl min⁻¹, and at the end of each protein injection (180 s), HBS-EP buffer (50 μl min⁻¹) was flowed over the chip to monitor dissociation for 180 s.

[4] = biological target: T2, ectodomain of murine βKlotho (F53 to …); test: SPR; βKlotho ectodomain immobilized, FGFR ligand-binding domain as analyte (FIG. 3B)
Procedure: FIGS. 3A-3G show the FGFR binding specificity profile of βKlotho. […] Where binding was observed, the dissociation constant (KD) was calculated from the saturation binding curve. The data shown in FIGS. 3A-G are representative of two to five independent experiments.
SPR experiments were performed on a Biacore 2000 instrument (Biacore AB), and all the protein-protein and protein-peptide interactions were studied at 25° C. in HBS-EP buffer (10 mM HEPES-NaOH, pH 7.4, 150 mM NaCl, 3 mM EDTA, 0.005% (v/v) polysorbate 20). Proteins were immobilized by amine coupling on flow channels of research grade CM5 chips (Biacore AB). Proteins were injected over a CM5 chip at a flow rate of 50 μl min⁻¹, and at the end of each protein injection (180 s), HBS-EP buffer (50 μl min⁻¹) was flowed over the chip to monitor dissociation for 180 s. In experiments where βKlotho binding to FGFR was analyzed, the chip surface was then regenerated by injecting 50 μl of 2.0 M NaCl in 10 mM sodium/potassium phosphate, pH 6.5. In experiments where α/βKlotho binding to FGF19/21/23 or binding of the FGFR1c-βKlotho complex to FGF21 was studied, 2.0 M NaCl in 10 mM sodium acetate, pH 4.5 was used for chip regeneration. To control for nonspecific binding in experiments where the ectodomain of αKlotho or βKlotho was immobilized on the chip, β-glucuronidase was coupled to the control flow channel of the chip (˜43-68 fmol/mm²).

[5] = biological target: T2, ectodomain of murine βKlotho (F53 to …); test: SPR; FGF23 immobilized, increasing concentrations of βKlotho ectodomain passed over the chip (FIG. 4C)
Text: FGF19 was immobilized on a biosensor chip, and increasing concentrations of βKlotho ectodomain were passed over the chip. […] FGF21 was immobilized on a biosensor chip, and increasing concentrations of βKlotho ectodomain were passed over the chip. Note that for any given concentration of βKlotho, the binding response is greater on the FGF19 chip surface than on the FGF21 chip surface. Also note that the FGF19-βKlotho complex dissociates more slowly than the FGF21-βKlotho complex (compare the dissociation phases of the sensorgrams shown in (A) and (B)). […] FGF23 was immobilized on a biosensor chip, and increasing concentrations of βKlotho ectodomain were passed over the chip. […] FGF19 was immobilized on a biosensor chip, and increasing concentrations of αKlotho ectodomain were passed over the chip. […] FGF21 was immobilized on a biosensor chip, and increasing concentrations of αKlotho ectodomain were passed over the chip. […]
SPR experiments were performed on a Biacore 2000 instrument (Biacore AB), and all the protein-protein and protein-peptide interactions were studied at 25° C. in HBS-EP buffer (10 mM HEPES-NaOH, pH 7.4, 150 mM NaCl, 3 mM EDTA, 0.005% (v/v) polysorbate 20). […] In experiments where βKlotho binding to FGFR was analyzed, the chip surface was then regenerated by injecting 50 μl of 2.0 M NaCl in 10 mM sodium/potassium phosphate, pH 6.5.

B1: FGF21^29-197/FGF19^204-216 chimera (H29 to V197 of human FGF21 and T204 to K216 of human FGF19; SEQ ID NO: 205) (ligand)
chain: HPIPDSSPLLQFGGQVRQRYLYTDDAQQTEAHLEIREDGTVGGAADQSPESLLQLKALKPGVIQILGVKTSRFLCQRPDGALYGSLHFDPEACSFRELLLEDGYNVYQSEAHGLPLHLPGNKSPHRDPAPRGPARFLPLPGLPPALPEPPGILAPQPPDVGSSDPLSMVTGLEAVRSPSFEK
notes: Chimera of human FGF21 and human FGF19, purified from E. coli inclusion bodies; also called FGF21^C-tail variant 19-41; printed once as FGF21^29-97/FGF19^204-216
[1]
  percent inhibition of FGFR1c-βKlotho binding to immobilized FGF21 at an equimolar ratio of chimera to complex: ≤ 75%

B2: FGF21^29-190/FGF19^197-216 chimera (H29 to S190 of human FGF21 and M197 to K216 of human FGF19; SEQ ID NO: 206) (ligand)
chain: HPIPDSSPLLQFGGQVRQRYLYTDDAQQTEAHLEIREDGTVGGAADQSPESLLQLKALKPGVIQILGVKTSRFLCQRPDGALYGSLHFDPEACSFRELLLEDGYNVYQSEAHGLPLHLPGNKSPHRDPAPRGPARFLPLPGLPPALPEPPGILAPQPPDVGSMDPFGLVTGLEAVRSPSFEK
notes: Chimera of human FGF21 and human FGF19, purified from E. coli inclusion bodies; also called FGF21^C-tail variant 19-45
[2]
  binding result: binds
[3]
  binding result: binds

B3: ligand-binding domain of human FGFR2c (N149 to E368 of SEQ ID NO: 226) (receptor)
chain: NNKRAPYWTNTEKMEKRLHAVPAANTVKFRCPAGGNPMPTMRWLKNGKEFKQEHRIGGYKVRNQHWSLIMESVVPSDKGNYTCVVENEYGSINHTYHLDVVERSPHRPILQAGLPANASTVVGGDVEFVCKVYSDAQPHIQWIKHVEKNGSKYGPDGLPYLKVLKAAGVNTTDKEIEVLYIRNVTFEDAGEYTCLAGNSIGISFHSAWLTVLPAPGREKE
[4]
  binding result: binds

B4: human FGF23, secreted bioactive form (Y25 to I251 of SEQ ID NO: 223) with arginines 176 and 179 replaced with glutamine (ligand)
chain: YPNASPLLGSSWGGLIHLYTATARNSYHLQIHKNGHVDGAPHQTIYSALMIRSEDAGFVVITGVMSRRYLCMDFRGNIFGSHYFDPENCRFQHQTLENGYDVYHSPQYHFLVSLGRAKRAFLPGMNPPPYSQFLSRRNEIPLIHFNTPIPRQHTQSAEDDSERDPLNVLKPRARMTPAPASCSQELPSAEDNSPMASDPLGVVRGGRVNTHAGGTGPEGCRPFAKFI
notes: The cleavage site was mutated to minimize proteolysis; Used as specificity control on the SPR chip
[5]
  binding result: no binding

Reference: patent US20130231277A1 (NEW YORK UNIVERSITY, published 2013)
